Results published in patent US20240261333A1, “NOVEL TARGETS FOR ENHANCING ANTI-TUMOR IMMUNITY” (THE BROAD INSTITUTE, INC., priority 2021, published 2024).

Biological target: T1, B3GNT2 (Homo sapiens, UniProt Q9NY97)
T1 construct: The respective ORFs of candidate genes [CD274 (NM_014143), MCL1 (NM_021960), JUNB (NM_002229), and B3GNT2 (NM_006577)] were synthesized; expressed in transfected cells; host or cells: A375 melanoma cells (lentiviral ORF overexpression)
T1 sequence (Q9NY97 1-397): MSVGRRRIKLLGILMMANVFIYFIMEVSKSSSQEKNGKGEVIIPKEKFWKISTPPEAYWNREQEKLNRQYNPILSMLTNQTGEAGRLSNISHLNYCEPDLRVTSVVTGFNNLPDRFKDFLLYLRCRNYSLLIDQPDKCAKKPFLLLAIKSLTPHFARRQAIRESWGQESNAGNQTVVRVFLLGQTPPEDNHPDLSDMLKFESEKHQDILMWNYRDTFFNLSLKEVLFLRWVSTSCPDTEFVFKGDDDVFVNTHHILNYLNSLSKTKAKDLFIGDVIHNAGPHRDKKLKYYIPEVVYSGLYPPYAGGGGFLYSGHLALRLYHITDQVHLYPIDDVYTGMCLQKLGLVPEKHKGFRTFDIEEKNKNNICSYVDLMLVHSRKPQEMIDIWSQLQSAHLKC
Test: Co-IP of FLAG-tagged B3GNT2 followed by mass spectrometry
Type: cell-based
Design: C-term IgG / C-term flag: unit not given here
Experimental: Cells were plated in 10-cm cell culture dishes and grown to 60-80% confluency. For each condition, two biological replicates were harvested for co-IP. Cells were washed with PBS and 4 mL of lysis buffer (20 mM HEPES, 1% Triton X-100, 150 mM NaCl, 1 mM EDTA, and 10% glycerol) containing protease inhibitor cocktail was added. Cells were scraped and lysate was incubated at 4° C. under rotary agitation for 1 h. Lysate was centrifuged at 14,000×g for 10 min at 4° C. Supernatant was transferred to a new tube and an aliquot was taken as the input. […] For Western blots, 10 μg/mL Chicken Anti-FLAG (Aves labs ET-DY100) and IgY control (R&D Systems AB-101-C) antibodies were biotinylated (Thermo Fisher Scientific 90407) and added to the respective conditions. Lysates with antibodies were incubated at 4° C. under rotary agitation overnight. For each mL of lysate, 50 μL of Pierce Protein A/G Magnetic Beads (Mass spectrometry; Thermo Fisher Scientific 88803) or Pierce Streptavidin Magnetic Beads (Western blot; Thermo Fisher Scientific 88817) was washed twice with lysis buffer. Lysates with antibodies were added to the beads and incubated at 4° C. under rotary agitation for 4 h. Beads were washed with lysis buffer 3 times and resuspended in lysis buffer for storage. […] This solution was subjected to solid phase extraction to concentrate the peptides and remove unwanted reagents followed by injection onto a Shimadzu HPLC with fraction collector. Eight fractions were collected and after concentration were injected on a Waters NanoAcquity HPLC equipped with a self-packed Aeris 3 μm C18 analytical column 0.075 mm by 20 cm, (Phenomenex). Peptides were eluted using standard reverse-phase gradients. The effluent from the column was analyzed using a Thermo Orbitrap Elite mass spectrometer (nanospray configuration) operated in a data dependent manner for 54 minutes. […] Scaffold Q+S (Proteome Software) was used to provide consensus reports for the identified proteins.

[1] = Co-IP with FLAG antibody, C-terminally FLAG-tagged B3GNT2, mass spectrometry count, unit not given
[2] = Co-IP with FLAG antibody, N-terminally FLAG-tagged B3GNT2, mass spectrometry count, unit not given
[3] = Co-IP with IgG control antibody, C-terminally FLAG-tagged B3GNT2, mass spectrometry count, unit not given
[4] = Co-IP with IgG control antibody, N-terminally FLAG-tagged B3GNT2, mass spectrometry count, unit not given
[5] = Co-IP followed by mass spectrometry of B3GNT2, C-term tag, FLAG pull-down
[6] = Co-IP followed by mass spectrometry of B3GNT2, C-term tag, IgG pull-down
[7] = Co-IP followed by mass spectrometry of B3GNT2, N-term tag, FLAG pull-down
[8] = Co-IP followed by mass spectrometry of B3GNT2, N-term tag, IgG pull-down

Substance	C-term flag [1]	N-term FLAG [2]	C-term IgG [3]	N-term IgG [4]	C-term flag [5]	C-term IgG [6]	N-term FLAG [7]	N-term IgG [8]
FABP5	8	6	0	2	–	–	–	–
CSPG4	12	2	0	0	–	–	–	–
LRP2	2	0	0	0	–	–	–	–
ELOC	2	0	0	0	–	–	–	–
XRCC5	3	0	0	0	–	–	–	–
HBA1	4	3	0	3	–	–	–	–
PIGR	5	2	0	0	–	–	–	–
RPS24	–	–	–	–	8	2	0	4
HSPA8	–	–	–	–	49	15	41	16
TECR	9	0	0	0	–	–	–	–
ERP29	0	2	0	0	–	–	–	–
HNRNPK	–	–	–	–	12	10	9	8
SQSTM1	43	3	3	0	–	–	–	–
HSPA5	130	70	12	9	–	–	–	–
GAPDH	16	18	6	11	–	–	–	–
PSMB5	–	–	–	–	0	0	4	0
YBX3	7	0	0	0	–	–	–	–
PSMC4	0	3	0	0	–	–	–	–
TNC	10	0	0	0	–	–	–	–
HSP90B1	56	9	0	0	–	–	–	–
STRAP	3	4	0	0	–	–	–	–
GBF1	–	–	–	–	5	0	0	0
LARP4	2	0	0	0	–	–	–	–
KRT4	–	–	–	–	37	0	22	21
LYZ	6	3	0	4	–	–	–	–
GALNT2	2	0	0	0	–	–	–	–
MAP1B	2	0	0	0	–	–	–	–
SUMF2	3	0	0	0	–	–	–	–
MYH11	–	–	–	–	7	5	2	3
ENO1	4	5	2	2	–	–	–	–
